Source: patent US20230038638A1, “COMPLEMENT FACTOR I-RELATED COMPOSITIONS AND METHODS” (published 2023)
“And” between values parts separate entries of the source, which are not always exact repeats. Identical values can stand only once.

Columns and labels:
[1] = target: soluble human C3b (human) (UniProt P01024)
[2] = target: T1, human C4b (human) (UniProt P0C0L4)
T1 sequence: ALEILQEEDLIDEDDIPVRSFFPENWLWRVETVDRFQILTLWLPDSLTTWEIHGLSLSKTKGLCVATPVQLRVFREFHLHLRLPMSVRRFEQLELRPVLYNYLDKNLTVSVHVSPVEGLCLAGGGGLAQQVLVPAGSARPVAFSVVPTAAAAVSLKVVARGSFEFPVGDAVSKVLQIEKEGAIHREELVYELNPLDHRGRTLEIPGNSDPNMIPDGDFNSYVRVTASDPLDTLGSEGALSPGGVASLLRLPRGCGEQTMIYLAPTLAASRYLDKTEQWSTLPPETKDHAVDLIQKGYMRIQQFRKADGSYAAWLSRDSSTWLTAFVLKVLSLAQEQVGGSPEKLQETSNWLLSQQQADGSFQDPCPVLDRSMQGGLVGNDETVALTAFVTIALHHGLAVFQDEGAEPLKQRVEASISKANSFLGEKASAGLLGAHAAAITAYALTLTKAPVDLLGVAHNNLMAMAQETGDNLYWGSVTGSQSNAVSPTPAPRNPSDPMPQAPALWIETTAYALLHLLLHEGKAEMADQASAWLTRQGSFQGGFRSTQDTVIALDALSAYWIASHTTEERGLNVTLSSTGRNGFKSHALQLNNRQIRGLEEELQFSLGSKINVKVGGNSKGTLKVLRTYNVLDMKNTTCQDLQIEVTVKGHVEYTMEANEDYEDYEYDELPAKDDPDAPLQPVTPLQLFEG

CFI-HSA fusion WT; GGSSGG (SEQ ID NO: 6); CR1(ccp15); fH(ccp2); fH(ccp3); fH(ccp4), sequence (P17927 other isoform, or with tags, fused parts or gaps limits assumed): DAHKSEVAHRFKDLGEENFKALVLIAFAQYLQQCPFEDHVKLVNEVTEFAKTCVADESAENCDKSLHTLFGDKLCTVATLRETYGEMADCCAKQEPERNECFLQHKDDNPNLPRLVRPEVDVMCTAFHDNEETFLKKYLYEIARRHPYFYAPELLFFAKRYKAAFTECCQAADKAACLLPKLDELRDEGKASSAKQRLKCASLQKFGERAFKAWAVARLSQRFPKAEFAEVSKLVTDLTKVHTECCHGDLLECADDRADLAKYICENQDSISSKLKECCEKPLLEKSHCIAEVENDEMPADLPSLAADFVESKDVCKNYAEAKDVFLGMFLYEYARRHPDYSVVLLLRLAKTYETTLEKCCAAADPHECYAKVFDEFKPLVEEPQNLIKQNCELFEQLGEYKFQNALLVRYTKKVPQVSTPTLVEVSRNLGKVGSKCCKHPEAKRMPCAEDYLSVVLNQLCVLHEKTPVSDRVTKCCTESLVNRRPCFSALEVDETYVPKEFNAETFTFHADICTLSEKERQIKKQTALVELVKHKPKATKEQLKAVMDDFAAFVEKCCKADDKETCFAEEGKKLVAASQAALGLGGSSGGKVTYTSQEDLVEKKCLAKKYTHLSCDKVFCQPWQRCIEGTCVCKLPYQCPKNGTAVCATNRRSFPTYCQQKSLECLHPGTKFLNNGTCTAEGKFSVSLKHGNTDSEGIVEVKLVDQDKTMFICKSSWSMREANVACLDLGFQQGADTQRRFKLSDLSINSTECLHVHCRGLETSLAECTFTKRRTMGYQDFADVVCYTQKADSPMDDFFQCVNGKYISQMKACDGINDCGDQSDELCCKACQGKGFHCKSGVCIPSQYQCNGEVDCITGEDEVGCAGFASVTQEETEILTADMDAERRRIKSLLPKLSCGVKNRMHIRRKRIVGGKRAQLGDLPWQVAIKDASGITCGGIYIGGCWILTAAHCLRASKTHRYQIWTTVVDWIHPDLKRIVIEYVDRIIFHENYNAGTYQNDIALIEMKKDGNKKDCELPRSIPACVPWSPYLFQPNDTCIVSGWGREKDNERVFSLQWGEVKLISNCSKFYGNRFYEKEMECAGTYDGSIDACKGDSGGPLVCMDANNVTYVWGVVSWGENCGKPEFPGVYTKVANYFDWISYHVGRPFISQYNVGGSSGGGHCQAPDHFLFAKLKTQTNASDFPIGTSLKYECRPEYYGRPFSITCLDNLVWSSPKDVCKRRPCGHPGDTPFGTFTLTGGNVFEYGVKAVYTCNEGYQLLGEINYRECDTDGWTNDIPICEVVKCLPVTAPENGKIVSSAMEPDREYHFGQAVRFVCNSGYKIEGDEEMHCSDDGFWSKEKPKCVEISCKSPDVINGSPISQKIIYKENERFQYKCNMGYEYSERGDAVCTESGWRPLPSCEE

iC3b Screen Ref Fold (fold of CFI-HSA wild type) [1] | C4b Screen Ref Fold (fold of CFI-HSA wild type) [2] | iC3b Screen Ref Fold (fold of reference) [1] | C4b Screen Ref Fold (fold of reference) [2] | Substance
1.4 and 1.38 | 0.34 and 0.16 |  |  | CFI-HSA variant E530F; P558S (enzyme)
 |  | -0.01 | 1.44 | CFI-HSA fusion WT; GGSSGG (SEQ ID NO: 6); CR1(ccp15); fH(ccp2); fH(ccp3); fH(ccp4) (from UniProt P17927) (enzyme)
0.28 | 2.29 |  |  | CFI-HSA variant R557A; N531M; Y403F; K504Y; E457N; E461L (enzyme)
 |  | 0 | -0.03 | CFI-HSA variant G469L; R456N; K458A; E461G (enzyme)
 |  | 0 | 0.08 | CFI-HSA variant Y372G (enzyme)
-0.02 | 0.13 |  |  | CFI-HSA H362T; V463S; R456I; S343R (enzyme)
-0.04 | 0.13 |  |  | CFI-HSA H362T; R456I; D459W; S343R (enzyme)
0.94 | 1.46 |  |  | CFI-HSA D425L (enzyme)
0.89 | 0.42 |  |  | CFI-HSA T407G; E457G (enzyme)
 |  | -0.01 | 0.26 | CFI-HSA variant W381G; P384A; V390G (enzyme)
0.17 | 0.4 |  |  | CFI-HSA P535T (enzyme)
 |  | 0.48 | 0.58 | CFI-HSA variant K312A; R314A (enzyme)
0.72 | 2.29 |  |  | CFI-HSA K534D (enzyme)
0.23 | 0.37 |  |  | CFI-HSA variant K387G (enzyme)
 |  | 0.01 | -0.02 | CFI-HSA variant I317D-R318D-R319D-K320D-R321K; Y408L; N531G; E457G; E461Q; R462K; F464Y (enzyme)
1.28 | 0.15 |  |  | CFI-HSA variant N476Q; N518Q (enzyme)
 |  | 0.95 | 2.62 | CFI-HSA variant E461F (enzyme)
 |  | 0.16 | 0.36 | CFI-HSA variant G344K (enzyme)
0.65 | 0.62 |  |  | CFI-HSA P535I (enzyme)
 |  | 0.85 | 1.83 | CFI-HSA variant R314A (enzyme)
0.87 | 3.12 |  |  | CFI-HSA K534L (enzyme)
0.55 | 0.67 |  |  | CFI-HSA Y408L; F464Y (enzyme)

iC3b Screen Ref Fold (fold of CFI-HSA wild type) [1] | C4b Screen Ref Fold (fold of CFI-HSA wild type) [2] | iC3b Screen Ref Fold (fold of reference) [1] | C4b Screen Ref Fold (fold of reference) [2] | Substance
1.49 | 0.08 |  |  | CFI-HSA variant D425K; Y408M; F537K; K504R; P558S (enzyme)
1.84 | 0.49 |  |  | CFI-HSA variant D425K; Y408M; E530F; K504R; P558S (enzyme)
0.6 | 0.68 |  |  | CFI-HSA P535M (enzyme)
 |  | 0.12 | 0.12 | CFI-HSA variant E461D (enzyme)
2.21 | 6.42 |  |  | CFI-HSA N531G; E461Q; R462K (enzyme)
1.45 | 6.13 |  |  | CFI-HSA N531G; E461Q (enzyme)
2.21 | 1.13 |  |  | CFI-HSA D425S (enzyme)
-0.04 | 0.13 |  |  | CFI-HSA variant E530F; S507A (enzyme)
0.97 | 1.67 |  |  | CFI-HSA variant Y408F; K504Y (enzyme)
-0.01 | 0.3 |  |  | CFI-HSA H362T; V463S; R456F; D459W; S343R (enzyme)
0.73 | 4.05 |  |  | CFI-HSA L307A (enzyme)
0 | 0.26 |  |  | CFI-HSA H362T; V463S; R456I; D459W; S343R (enzyme)
1.11 | 4.33 |  |  | CFI-HSA E457G; R462K (enzyme)
1.29 | 5.6 |  |  | CFI-HSA Y408L; N531G; E461Q; F464Y (enzyme)
-0.05 | 0.02 |  |  | CFI-HSA D506Y (enzyme)
 |  | 0.99 | 2.38 | CFI-HSA variant E461Y (enzyme)
-0.02 | 0.1 |  |  | CFI-HSA variant E457G; S507A (enzyme)
0.29 | 0.14 |  |  | CFI-HSA P535W (enzyme)
1.24 | 6.55 |  |  | CFI-HSA N531G; E457G; F464Y (enzyme)
1.11 | 6.36 |  |  | CFI-HSA E461Q; F464Y (enzyme)
0.13 | 0.02 |  |  | CFI-HSA variant D425K; E530F; F537K; K504R (enzyme)
0.95 | 0.11 |  |  | CFI-HSA variant Y408M; E530F (enzyme)

iC3b Screen Ref Fold (fold of CFI-HSA wild type) [1] | C4b Screen Ref Fold (fold of CFI-HSA wild type) [2] | iC3b Screen Ref Fold (fold of reference) [1] | C4b Screen Ref Fold (fold of reference) [2] | Substance
2.11 | 0.22 |  |  | CFI-HSA variant D425K; F537K (enzyme)
1.92 | 1.77 |  |  | CFI-HSA variant Y408F; N531M (enzyme)
 |  | 0 | 0.14 | CFI-HSA variant K340G; I345G (enzyme)
0.91 | 2.18 |  |  | CFI-HSA D425M (enzyme)
 |  | 1.31 | 1.27 | CFI-HSA variant I560V (enzyme)
1.09 | 4.67 |  |  | CFI-HSA Y408L; E530R; N531G (enzyme)
1.18 | 0.38 |  |  | CFI-HSA variant F537K; P558S (enzyme)
 |  | 0.39 | 0.69 | CFI-HSA variant K418G (enzyme)
0.95 | 3.89 |  |  | CFI-HSA K534M (enzyme)
 |  | -0.01 | 0.16 | CFI-HSA variant I345G (enzyme)
 |  | 0.01 | 2.57 | CFI-HSA fusion WT; GGSSGG (SEQ ID NO: 6); CR1(ccp15); CR1(ccp16); CR1(ccp17); fH(ccp4) (from UniProt P17927) (enzyme)
0.03 | 0.3 |  |  | CFI-HSA D506K (enzyme)
2.46 | 3.53 |  |  | CFI-HSA variant D425K; E457G; E461Q; K504R; N531G (enzyme)
0.03 | 0 |  |  | CFI-HSA variant E530F; F537K (enzyme)
0.83 | 0.09 |  |  | CFI-HSA variant Y408M; K504R (enzyme)
1.03 | 1.64 |  |  | CFI-HSA F537Y (enzyme)
1.91 | 1.6 |  |  | CFI-HSA D425F (enzyme)
0.01 | 0.03 |  |  | CFI-HSA variant I391G (enzyme)
1.52 | 1.75 |  |  | CFI-HSA D425E (enzyme)
1.29 | 6.44 |  |  | CFI-HSA Y408L; N531G (enzyme)
0.88 | 3.36 |  |  | CFI-HSA K534N (enzyme)
0 | 0.11 |  |  | CFI-HSA K534P (enzyme)
